The target in one test is T1, human serum albumin (human, UniProt P02768 25-609).
T1 construct: also called HSA
The test can be described thus: not stated; IC50/Kd, called Kd in paragraph 434.

The target in a further test is T2, human p55 TNF receptor (human, UniProt P19438 30-211, limits assumed).
T2 construct: also called TNF Receptor 1; TNFR1
T2 sequence (looked up): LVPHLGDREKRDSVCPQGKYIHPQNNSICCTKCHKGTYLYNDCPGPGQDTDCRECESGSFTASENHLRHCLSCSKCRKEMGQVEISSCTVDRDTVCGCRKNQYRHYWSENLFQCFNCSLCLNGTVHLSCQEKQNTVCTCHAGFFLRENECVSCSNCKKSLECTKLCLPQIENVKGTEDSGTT

B1: TAR3h-22 (other)
VH: STEVQLLESGGGLVQPGGSLRLSCAASGFTFSKYWMSWVRQAPGKGLEWVSSIDFMGPHTYYADSVKGRFTISRDNSKNTLYLQMNSLRAEDTAVYYCAKGRTSMLPMKGKFDYWGQGTLVTVSSAAAEQKLISEEDLN
notes: anti-HSA VH dAb expressed from pDOM5
One may read the Kd as a measure of binding affinity in units of concentration. Read a low Kd as higher affinity. In the test with human serum albumin, B1 yielded a Kd of 50 nM.

B2: TAR3h-23 (other)
VH: STEVQLLESGGGLVQPGGSLRLSCAASGFTFYDYNMSWVRQAPGKGLEWVSTITHTGGVTYYADSVKGRFTISRDNSKNTLYLQMNSLRAEDTAVYYCAKQNPSYQFDYWGQGTLVTVSSAAAEQKLISEEDLN
notes: as for B1
Turning to B2, the dissociation constant (Kd) with human serum albumin stood at 800 nM.

B3: TAR3h-26 (other)
VH: STEVQLLESGGGLVQPGGSLRLSCTASGFTFDEYNMSWVRQAPGKGLEWVSTILPHGDRTYYADSVKGRFTISRDNSKNTLYLQMNSLRAEDTAVYYCAKQDPLYRFDYWGQGTLVTVSSAAAEQKLISEEDLN
notes: as for B1
B3 came in with a Kd with human serum albumin of 200 nM.

B4: TAR2h10-55 (other)
VH: STEVQLLESGGGLVQPGGSLRLSCAASGFPFEWYWMGWVRQAPGKGLEWVSAISGSGDSTYYADSVKGRFTISRDNSKNTLYQQMNSLRAEDAAVYYCAKVKLGGGPNFGYRGQGTLVTVSSAAAEQKLISEEDLN
notes: expressed from pDOM5; also called TAR2h10-55 dAb
In the test with human p55 TNF receptor, B4 displayed a Kd of 10 to 15 nM.
